Experimental findings from publication PMC2650276 (Neuron, 2009) are described below.

Common to all, as to experiment: pull-down
In test [1] the target is His-tagged WT pCaMKIIα (autophosphorylated at T286) (rat, UniProt P11275 1-478, phosphothreonine at T286 (autophosphorylation)).
Test [2] has as its target T1, His-tagged full-length CaMKIIα (M1-H478), wild type (rat, UniProt P11275 1-478).
Test [3] deals with T1, His-tagged full-length CaMKIIα …. The source holds these as a separate data set.
The target is the same in test [4]. This is another data set of the same source.
Test [5] has as its target GST-tagged full-length CaMKIIα (M1-H478) (rat, UniProt P11275 1-478).

Where two headings read alike, the source gives them in different places. Where no end group is shown, it is not given here.

T1 sequence (P11275 whole entry): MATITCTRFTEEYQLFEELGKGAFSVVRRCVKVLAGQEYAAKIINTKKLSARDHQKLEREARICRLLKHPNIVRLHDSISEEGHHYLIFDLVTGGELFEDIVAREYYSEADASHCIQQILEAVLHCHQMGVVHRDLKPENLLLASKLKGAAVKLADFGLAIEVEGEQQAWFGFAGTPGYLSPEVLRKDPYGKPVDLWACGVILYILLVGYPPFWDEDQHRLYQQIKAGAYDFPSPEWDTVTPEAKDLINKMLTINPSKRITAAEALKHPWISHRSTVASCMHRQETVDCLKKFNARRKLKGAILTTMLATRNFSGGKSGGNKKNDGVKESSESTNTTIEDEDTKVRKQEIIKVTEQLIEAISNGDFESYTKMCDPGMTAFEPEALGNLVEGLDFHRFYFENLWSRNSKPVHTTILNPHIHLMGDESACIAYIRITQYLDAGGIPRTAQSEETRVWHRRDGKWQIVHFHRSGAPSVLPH
Chain of His-tagged WT pCaMKIIα (autophosphorylated at T286) (P11275 whole entry): as above
Chain of GST-tagged full-length CaMKIIα (M1-H478) (P11275 whole entry): as above

B1: GST-D3RIL3(R210-P239) (domain or fragment, rat, UniProt P19020 210-239, looked up)
chain: RIYIVLRQRQRKRILTRQNSQCISIRPGFP
On to B1, for which the binding result in test [1] and in test [2] was “binds” each time.

B2: biotinylated Tat-D3Rr (peptide)
peptide: YGRKKRRQRRRRILTRQNSQCISIRP
modifications: also: biotin, position not given here
On to B2, for which, in test [3], the binding result is recorded as “binds”.

B3: GST-D3RIL3 (R210-Q375) (domain or fragment, rat, UniProt P19020 210-375, looked up)
chain: RIYIVLRQRQRKRILTRQNSQCISIRPGFPQQSSCLRLHPIRQFSIRARFLSDATGQMEHIEDKQYPQKCQDPLLSHLQPPSPGQTHGGLKRYYSICQDTALRHPSLEGGAGMSPVERTRNSLSPTMAPKLSLEVRKLSNGRLSTSLRLGPLQPRGVPLREKKATQ
Turning to B3, the binding result in test [1] and in test [4] was “binds” throughout.

B4: D3RIL3 (R210-Q375), released from GST by thrombin (domain or fragment, rat, UniProt P19020 210-375, looked up)
chain: RIYIVLRQRQRKRILTRQNSQCISIRPGFPQQSSCLRLHPIRQFSIRARFLSDATGQMEHIEDKQYPQKCQDPLLSHLQPPSPGQTHGGLKRYYSICQDTALRHPSLEGGAGMSPVERTRNSLSPTMAPKLSLEVRKLSNGRLSTSLRLGPLQPRGVPLREKKATQ
Turning to B4, the binding result in test [5] was “binds”.
